Measurements published in PMC9800336, “Exploration of the cysteine reactivity of human inducible Hsp70 and cognate Hsc70” (The Journal of Biological Chemistry, 2022).
Ends that are not written are not given here. * marks the point of attachment. FITC = O=C1OC2(c3ccc(O)cc3Oc3cc(O)ccc32)c2ccc(NC(=S)*)cc21

How the values were obtained:
Conditions in all cases: both partners purified
WT hHsp70 (human HspA1A) = target: T1, WT hHsp70 (human HspA1A) (human, UniProt P0DMV8 1-641); assay: fluorescence polarisation; kinetic; 20 nM FAR mixed with 10 μM hHsp70 in the presence of 1 mM ADP, RT, FP recorded against time; diamide or diamide with GSH added at 60 min, DTT at 120 min
T1 construct: human HspA1A (hHsp70), UniProtKB P0DMV8, full length; also called HspA1A/B; human inducible Hsp70

[1] = target: T2, hHsp70-C17/C574/C603 (hHsp70 C267S/C306S), untreated control (human, UniProt P0DMV8 1-641, C267S | C306S); assay: fluorescence polarisation; steady state; increasing concentrations of Hsp70 with 20 nM FAR peptide, 60-min incubation, RT, buffer B (50 mM Tris-HCl pH 7.5, 100 mM KCl, 5 mM MgCl2); single site-binding model
T2 construct: human HspA1A (hHsp70), UniProtKB P0DMV8, full length with C267S/C306S; also called unmodified form

[2] = target: T3, disulfide-bonded hHsp70-C17/C574/C603 (human, UniProt P0DMV8 1-641, C267S | C306S, intramolecular disulfide bond between Cys574 and Cys603); assay: as above
T3 construct: human HspA1A (hHsp70), UniProtKB P0DMV8, full length with C267S/C306S; also called -S-S-; disulfide-bonded form of full length hHsp70
T3 sequence (P0DMV8 whole entry C267S/C306S): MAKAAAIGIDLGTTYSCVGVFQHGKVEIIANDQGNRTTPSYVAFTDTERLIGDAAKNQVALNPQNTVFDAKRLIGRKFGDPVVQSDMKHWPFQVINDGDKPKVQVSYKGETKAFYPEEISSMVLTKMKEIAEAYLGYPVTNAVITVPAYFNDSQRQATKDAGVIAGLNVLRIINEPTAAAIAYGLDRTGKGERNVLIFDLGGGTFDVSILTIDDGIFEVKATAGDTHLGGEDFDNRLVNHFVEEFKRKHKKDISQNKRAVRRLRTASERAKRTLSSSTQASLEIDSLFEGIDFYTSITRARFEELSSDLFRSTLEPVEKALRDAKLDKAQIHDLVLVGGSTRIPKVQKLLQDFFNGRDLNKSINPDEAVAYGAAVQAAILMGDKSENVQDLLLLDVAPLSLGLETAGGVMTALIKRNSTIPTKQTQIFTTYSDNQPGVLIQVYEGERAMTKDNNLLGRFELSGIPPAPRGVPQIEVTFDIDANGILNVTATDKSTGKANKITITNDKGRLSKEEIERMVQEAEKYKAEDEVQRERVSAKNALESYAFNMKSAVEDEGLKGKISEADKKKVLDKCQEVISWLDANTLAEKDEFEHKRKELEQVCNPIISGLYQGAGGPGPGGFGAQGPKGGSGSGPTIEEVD

T1 sequence (P0DMV8 whole entry): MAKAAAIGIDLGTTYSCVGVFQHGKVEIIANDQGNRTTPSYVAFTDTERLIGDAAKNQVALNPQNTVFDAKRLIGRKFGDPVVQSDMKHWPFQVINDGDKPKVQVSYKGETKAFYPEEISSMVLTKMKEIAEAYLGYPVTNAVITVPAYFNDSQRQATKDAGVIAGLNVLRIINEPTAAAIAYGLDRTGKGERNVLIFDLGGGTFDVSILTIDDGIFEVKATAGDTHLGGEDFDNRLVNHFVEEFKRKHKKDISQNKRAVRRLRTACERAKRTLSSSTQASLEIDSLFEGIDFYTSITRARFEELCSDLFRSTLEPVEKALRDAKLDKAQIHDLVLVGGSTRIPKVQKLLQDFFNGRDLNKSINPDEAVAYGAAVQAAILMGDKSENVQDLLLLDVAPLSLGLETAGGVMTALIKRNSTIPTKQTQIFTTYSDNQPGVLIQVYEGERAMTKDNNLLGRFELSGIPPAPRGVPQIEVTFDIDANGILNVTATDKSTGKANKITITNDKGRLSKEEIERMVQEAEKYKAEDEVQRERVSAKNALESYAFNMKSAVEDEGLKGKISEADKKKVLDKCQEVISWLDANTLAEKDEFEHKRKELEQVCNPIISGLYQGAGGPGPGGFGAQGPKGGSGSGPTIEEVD
T2 sequence (P0DMV8 whole entry C267S/C306S): as the sequence (P0DMV8 whole entry C267S/C306S) above

binding result (WT hHsp70 (human HspA1A)): binds
binding result [1]: binds
binding result [2]: binds
B1: FITC-ALLLSAPRR peptide (peptide)
peptide: {FITC}-ALLLSAPRR
notes: fluorescently labelled model substrate peptide of Hsp70; also called FAR; FAR peptide
